From paper PMC8529511 come the findings set out here.

The target in this experiment is Trypsin (UniProt P00761). The experiment in a line: enzyme inhibition assay.
Take “C12-EETI-II (lauroyl, C12:0, fatty acylated EETI-II) (peptide)”: the Ki is 102 pM.
The substance “C14-EETI-II (myristoyl, C14:0, fatty acylated EETI-II) (peptide)” had a Ki of 100 pM.
Next, “C16-EETI-II (palmitoyl, C16:0, fatty acylated EETI-II) (peptide)”: 132 pM; “C18-EETI-II (stearoyl, C18:0, fatty acylated EETI-II; octadecanedioic acid conjugate) (peptide)”: 125 pM.

The term Ki denotes the dissociation constant of the complex between target and ligand, obtained from inhibition or displacement. Higher therefore signals a looser hold on the target.
